We go through three molecules from patent US20230235013A1 (MABSOLVE, published 2023).

For test [1], the target named is T1, Histidine-tagged recombinant human FcγRI (CD64) (human, UniProt P12314 16-288).
T1 construct: bought; also called Sino Biological Cat. No. 12056-H08H
Kind of test: SPR, captured His-receptor.

Test [2] concerns the target T2, human FcγRIIIB (NA2 allotype, Sino Biological Cat. No. 11046-H08H) (human, UniProt O75015 17-200).
T2 construct: bought; also called human FcγRIIIb NA2 allele
In words: SPR, captured His-receptor. A general note: Surface plasmon resonance follows binding to a sensor surface in real time, without labels.

For test [3], the target named is T3, human FcγRIIA (R131, Sino Biological Cat. No. 10374-H08H) (human, UniProt P12318 34-218).
T3 construct: bought; also called human FcγRIIa R131 allele; FcγRII allele R131
T3 sequence (looked up): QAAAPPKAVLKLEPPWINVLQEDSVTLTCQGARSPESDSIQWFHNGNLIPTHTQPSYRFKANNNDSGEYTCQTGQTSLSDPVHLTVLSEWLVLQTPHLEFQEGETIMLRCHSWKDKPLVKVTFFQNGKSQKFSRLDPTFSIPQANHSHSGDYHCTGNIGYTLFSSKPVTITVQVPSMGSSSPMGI
In words: SPR, captured His-receptor.

Test [4] deals with T1, Histidine-tagged recombinant human …. In words: SPR, culture supernatant, captured His-FcγRI.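 Note: biacore T200 SPR at 25 °C, anti-His capture, supernatants of HEK293 cells expressing IgG1 Fc variants injected 1 min, reference-subtracted response read 55 s after injection start.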

B1: anti-CD20 rabbit IgG L234Q/L235S/G236R (antibody)
heavy: QVQLQQPGAELVKPGASVKMSCKASGYTFTSYNMHWVKQTPGRGLEWIGAIYPGNGDTSYNQKFKGKATLTADKSSSTAYMQLSSLTSEDSAVYYCARSTYYGGDWYFNVWGAGTTVTVSSGQPKAPSVFPLAPCCGDTPSSTVTLGCLVKGYLPEPVTVTWNSGTLTNGVRTFPSVRQSSGLYSLSSVVSVTSSSQPVTCNVAHPATNTKVDKTVAPSTCSKPTCPPPEQSRGPSVFIFPPKPKDTLMISRTPEVTCVVVDVSEDDPEVQFTWYINNEQVRTARPPLREQQFNSTIRVVSTLPIAHEDWLRGKEFKCKVHNKALPAPIEKTISKARGQPLEPKVYTMGPPREELSSRSVSLTCMINGFYPSDISVEWEKNGKAEDNYKTTPAVLDSDGSYFLYSKLSVPTSEWQRGDVFTCSVMHEALHNHYTQKSISRSPGK
light: QIVLSQSPAILSASPGEKVTMTCRASSSVSYIHWFQQKPGSSPKPWIYATSNLASGVPVRFSGSGSGTSYSLTISRVEAEDAATYYCQQWTSNPPTFGGGTKLEIKRDPVAPSVLLFPPSKEELTTGTATIVCVANKFYPSDITVTWKVDGTTQQSGIENSKTPQSPEDNTYSLSSTLSLTSAQYNSHSVYTCEVVQGSASPIVQSFNRGDC
notes: also called 23.77
As for B1, the binding result in test [1], in test [2] and in test [3] was “no binding (tested: 100 µg/mL)” in each case.

B2: anti-CD20 human IgG1 L234G/L235S/G236R (antibody)
heavy: QVQLQQPGAELVKPGASVKMSCKASGYTFTSYNMHWVKQTPGRGLEWIGAIYPGNGDTSYNQKFKGKATLTADKSSSTAYMQLSSLTSEDSAVYYCARSTYYGGDWYFNVWGAGTTVTVSSASTKGPSVFPLAPSSKSTSGGTAALGCLVKDYFPEPVTVSWNSGALTSGVHTFPAVLQSSGLYSLSSVVTVPSSSLGTQTYICNVNHKPSNTKVDKKVEPKSCDKTHTCPPCPAPEGSRGPSVFLFPPKPKDTLMISRTPEVTCVVVDVSHEDPEVKFNWYVDGVEVHNAKTKPREEQYNSTYRVVSVLTVLHQDWLNGKEYKCKVSNKALPAPIEKTISKAKGQPREPQVYTLPPSRDELTKNQVSLTCLVKGFYPSDIAVEWESNGQPENNYKTTPPVLDSDGSFFLYSKLTVDKSRWQQGNVFSCSVMHEALHNHYTQKSLSLSPGK
light: QIVLSQSPAILSASPGEKVTMTCRASSSVSYIHWFQQKPGSSPKPWIYATSNLASGVPVRFSGSGSGTSYSLTISRVEAEDAATYYCQQWTSNPPTFGGGTKLEIKRTVAAPSVFIFPPSDEQLKSGTASVVCLLNNFYPREAKVQWKVDNALQSGNSQESVTEQDSKDSTYSLSSTLTLSKADYEKHKVYACEVTHQGLSSPVTKSFNRGEC
notes: also called 1-59; 2-19; copies: 2 + 2
With B2, the Mean binding response in test [4] stood at 21.8 RU. Moreover, the binding result in test [1], in test [2] and in test [3] was “no binding (tested: 100 µg/mL)” in each case.

B3: anti-CD20 human IgG1 L234T/L235T/G236R (antibody)
heavy: QVQLQQPGAELVKPGASVKMSCKASGYTFTSYNMHWVKQTPGRGLEWIGAIYPGNGDTSYNQKFKGKATLTADKSSSTAYMQLSSLTSEDSAVYYCARSTYYGGDWYFNVWGAGTTVTVSSASTKGPSVFPLAPSSKSTSGGTAALGCLVKDYFPEPVTVSWNSGALTSGVHTFPAVLQSSGLYSLSSVVTVPSSSLGTQTYICNVNHKPSNTKVDKKVEPKSCDKTHTCPPCPAPETTRGPSVFLFPPKPKDTLMISRTPEVTCVVVDVSHEDPEVKFNWYVDGVEVHNAKTKPREEQYNSTYRVVSVLTVLHQDWLNGKEYKCKVSNKALPAPIEKTISKAKGQPREPQVYTLPPSRDELTKNQVSLTCLVKGFYPSDIAVEWESNGQPENNYKTTPPVLDSDGSFFLYSKLTVDKSRWQQGNVFSCSVMHEALHNHYTQKSLSLSPGK
light: QIVLSQSPAILSASPGEKVTMTCRASSSVSYIHWFQQKPGSSPKPWIYATSNLASGVPVRFSGSGSGTSYSLTISRVEAEDAATYYCQQWTSNPPTFGGGTKLEIKRTVAAPSVFIFPPSDEQLKSGTASVVCLLNNFYPREAKVQWKVDNALQSGNSQESVTEQDSKDSTYSLSSTLTLSKADYEKHKVYACEVTHQGLSSPVTKSFNRGEC
notes: also called 1-165; 2-63; copies: 2 + 2
As for B3, the binding result in test [1], in test [2] and in test [3] was “no binding (tested: 100 µg/mL)” throughout.
